According to US20190315886A1 (JIANGSU HENGRUI MEDICINE, published 2019):

Key:
[1] = molecular target: T1, human thrombin with His tag (human, UniProt P00734 328-622); test: BIAcore
[2] = molecular target: T2, human prothrombin with His tag (human, UniProt P00734 44-622); test: BIAcore
T2 construct: also called h-prothrombin-his

[3] = molecular target: T3, mouse thrombin with His tag (mouse, UniProt P19221 325-618, limits assumed); test: binding ELISA
T3 construct: also called m-thrombin-His; murine thrombin

[4] = molecular target: T1, human thrombin with His tag; test: binding ELISA
[5] = molecular target: T2, human prothrombin with His tag; test: binding ELISA
[6] = molecular target: T1, human thrombin with His tag; test: binding ELISA, biotinylated His-tagged human thrombin on streptavidin plate
Description: The binding ability of anti-thrombin antibody was detected by ELISA assay with the antibodies and the human thrombin with His tag. Thrombin protein with His tag labeled with the biotin-labeling kit (Dongren Chemicals, Cat No. LK03) was immobilized into a 96-well microtiter plate by binding to streptavidin coated on the microtiter plate, the strength of the signal after the addition of the antibody was used to determine the binding activity of the antibody to thrombin. The specific experimental method is as follows.
Streptavidin (Sigma, Cat No. S4762-5MG) was diluted to a concentration of 5 μg/ml with PBS buffer, pH 7.4 (Sigma, Cat No. P4417-100TAB) and added to a 96-well plate at a volume of 50 μl/well, and then, the plate was incubated in the incubator at 37° C. for 2 hours. After discarding the liquid, the plates were blocked with 200 μl/well of blocking solution containing 5% skim milk (Guangming skim milk) in PBS, and incubated in the incubator at 37° C. for 2.5 hours or overnight at 4° C. (16-18 hours). After blocking, the blocking solution was discarded and the plate was washed 5 times with PB ST buffer (PBS containing 0.05% tweeen-20, pH7.4). Human thrombin protein with His tag labeled with the biotin-labeling (SEQ ID NO: 2, as shown by the double underline) was diluted with sample dilution (PBS containing 1% BSA, PH7.4) to 50 μg/ml and was added to each well, 50 μl/well. Then the plate was incubated in the incubator at 37° C. for 2 h or overnight. After incubation, the blocking solution in the plate was discarded, and the plate was washed with PBST 6 times, and then 50 μl/well of various concentrations of the test antibodies diluted with sample dilution was added to each well, and the plate was incubated at 37° C. for 2 h. The plates were washed 5 times with PBST after incubation, and 100 μl/well of goat anti-human secondary antibody (Jackson Immuno Research, Cat No. 109-035-003) labeled with HRP was added to each well, diluted in sample dilution, and the plate was incubated at 37° C. for 1 h. After washing the plates 5 times with PBST, 50 μl/well of TMB chromogenic substrate (KPL, Cat No. 52-00-03) was added to each well, and incubated at room temperature for 10-15 min. The reaction was stopped by the addition of 50 μl/well 1M H₂SO₄ to each well.

[7] = molecular target: T1, human thrombin with His tag; test: Biacore; reference h1601-008
[8] = molecular target: T2, human prothrombin with His tag; test: Biacore; reference h1601-008
[9] = molecular target: T1, human thrombin with His tag; test: Biacore
[10] = molecular target: T2, human prothrombin with His tag; test: Biacore
[11] = molecular target: T1, human thrombin with His tag; test: Biacore; ratio of KD on pro-thrombin to KD on thrombin
[12] = molecular target: T1, human thrombin with His tag; test: BIAcore, antibody captured by anti-human antibody
[13] = molecular target: T2, human prothrombin with His tag; test: BIAcore, antibody captured by anti-human antibody
[14] = molecular target: T1, human thrombin with His tag; test: biacore; selectivity thrombin over pro-thrombin, reference h1601-008

| Binder | EC50 [6] [nM] | Fold of Affinity relative to h1601-008 [7] [fold] | Fold of Affinity relative to h1601-008 [8] [fold] | Kd [9] [nM] | Kd [10] [nM] | Selective activity [11] | other results |
| --- | --- | --- | --- | --- | --- | --- | --- |
| chimeric antibody CH-1601 (antibody, human IgG4 S228P, kappa, V domains shown) VH: EVKLVESEGGLVQPGSSLKLSCTASGFTFSDYYMAWVRQVPEKGLEWVANINSDGSSTYYLDSLKSRFIISRDNAKNILYLQMSSLKSEDTATYYCARDHYHGNSYVFDYWGQGTTLTVSS VL: DIQMTQSSSSFSVSRGNRVTITCKASEDIYNRLAWYQQKPGNAPRLIISGATSLETGVPSRFSGSGSGKDYTLSITSLQTEDVGTYYCQQYWSTPWTFGGGTKLEIKR |  |  |  |  |  |  | Kd [1]: 2.27 nM; Kd [2]: 78.7 nM; binding result [3]: no binding; EC50 [4]: 0.71 nM; EC50 [5]: 42.6 nM |
| humanized antibody h1601-005 (antibody, human IgG4 S228P, kappa, V domains shown) VH: EVQLVESGGGLVQPGGSLRLSCAASGFTFSDYYMAWVRQAPGKGLEWVSNINSDGSSTYYLDSLKSRFTISRDNSKNTLYLQMNSLKAEDTAVYYCARDHYHGNSYVFDYWGQGTTVTVSS VL: DIQMTQSPSSLSASVGDRVTITCKASEDIYNRLAWYQQKPGKAPKLLISGATSLETGVPSRFSGSGSGKDFTLTISSLQPEDFATYYCQQYWSTPWTFGGGTKVEIKR | 5.8 |  |  |  |  |  |  |
| aTM-2 (antibody, V domains shown) VH: EVQLVESGGGLVQPGGSLRLSCAASGFTFSDYYMAWVRQAPGKGLEWVSNINSDGSSTYYLDSLKSRFTISRDNSKNTLYLQMNSLKAEDTAVYYCARDHYLGNSYVFDSWGQGTTVTVSS VL: DIQMTQSPSSLSASVGDRVTITCKASEDIYNRLAWYQQKPGKAPRLIISGATSLETGVPSRFSGSGSGKDYTLTISSLQPEDFATYYCQQYWSTPWTFGGGTKVEIK |  | 86.5 | 62.4 | 0.0899 | 1.23 | 13.7 |  |
| aTM-1 (antibody, V domains shown) VH: EVQLVESGGGLVQPGGSLRLSCAASGFTFSDYYMAWVRQAPGKGLEWVSNINSDGSSTYYLDSLKSRFTISRDNSKNTLYLQMNSLKAEDTAVYYCARDHYIGASYVFDYWGQGTTVTVSS VL: DIQMTQSPSSLSASVGDRVTITCKASEDIYNRLAWYQQKPGKAPRLIISGATSLETGVPSRFSGSGSGKDYTLTISSLQPEDFATYYCQQYWSTPWTFGGGTKVEIK |  | 40.7 | 22.1 | 0.191 | 3.48 | 18.2 | fold increase of selectivity (against h1601-008) [14]: 1.8 times |
| aTM-4 (antibody, V domains shown) VH: EVQLVESGGGLVQPGGSLRLSCAASGFTFSDYYMAWVRQAPGKGLEWVSNINSDGSSTYYLDSLKSRFTISRDNSKNTLYLQMNSLKAEDTAVYYCARDHYLGNSYVFDLWGQGTTVTVSS VL: DIQMTQSPSSLSASVGDRVTITCKASEDIYNRLAWYQQKPGKAPRLIISGATSLETGVPSRFSGSGSGKDYTLTISSLQPEDFATYYCQQYWSTPWTFGGGTKVEIK |  | 54 | 29.3 | 0.144 | 2.62 | 18.2 |  |
| aTM-7 (antibody, V domains shown) VH: EVQLVESGGGLVQPGGSLRLSCAASGFTFSDYYMAWVRQAPGKGLEWVSNINSDGSSTYYLDSLKSRFTISRDNSKNTLYLQMNSLKAEDTAVYYCARDHYMGNSYVFDTWGQGTTVTVSS VL: DIQMTQSPSSLSASVGDRVTITCKASEDIYNRLAWYQQKPGKAPRLIISGATSLETGVPSRFSGSGSGKDYTLTISSLQPEDFATYYCQQYWSTPWTFGGGTKVEIK |  | 45.2 | 37.5 | 0.172 | 2.05 | 11.9 |  |

Further lines, with some results ahead:

| EC50 [6] [nM] | Fold of Affinity relative to h1601-008 [7] [fold] | Fold of Affinity relative to h1601-008 [8] [fold] | Kd [9] [nM] | Kd [10] [nM] | Selective activity [11] | Binder | other results |
| --- | --- | --- | --- | --- | --- | --- | --- |
| 4.45 |  |  |  |  |  | humanized antibody h1601-006 (antibody, human IgG4 S228P, kappa, V domains shown) VH: EVKLVESGGGLVQPGGSLRLSCAASGFTFSDYYMAWVRQAPGKGLEWVANINSDGSSTYYLDSLKSRFTISRDNSKNTLYLQMNSLKAEDTAVYYCARDHYHGNSYVFDYWGQGTTVTVSS VL: DIQMTQSPSSLSASVGDRVTITCKASEDIYNRLAWYQQKPGKAPKLLISGATSLETGVPSRFSGSGSGKDFTLTISSLQPEDFATYYCQQYWSTPWTFGGGTKVEIKR |  |
| 1.54 | 1 | 1 | 7.78 | 76.8 | 9.9 | humanized antibody h1601-008 (antibody, human IgG4 S228P, kappa, V domains shown) VH: EVQLVESGGGLVQPGGSLRLSCAASGFTFSDYYMAWVRQAPGKGLEWVSNINSDGSSTYYLDSLKSRFTISRDNSKNTLYLQMNSLKAEDTAVYYCARDHYHGNSYVFDYWGQGTTVTVSS VL: DIQMTQSPSSLSASVGDRVTITCKASEDIYNRLAWYQQKPGKAPRLIISGATSLETGVPSRFSGSGSGKDYTLTISSLQPEDFATYYCQQYWSTPWTFGGGTKVEIKR | Kd [12]: 8.97 nM; Kd [13]: 94.3 nM |
| 1.49 |  |  |  |  |  | humanized antibody h1601-009 (antibody, human IgG4 S228P, kappa, V domains shown) VH: EVKLVESGGGLVQPGGSLRLSCAASGFTFSDYYMAWVRQAPGKGLEWVANINSDGSSTYYLDSLKSRFTISRDNSKNTLYLQMNSLKAEDTAVYYCARDHYHGNSYVFDYWGQGTTVTVSS VL: DIQMTQSPSSLSASVGDRVTITCKASEDIYNRLAWYQQKPGKAPRLIISGATSLETGVPSRFSGSGSGKDYTLTISSLQPEDFATYYCQQYWSTPWTFGGGTKVEIKR | Kd [12]: 8.17 nM |
